# Assays:
# Format in all cases: physicochemical
# [1] = Solubility of the product in water; settings: product of small scale reaction (0.5 g), 2% diacerhein functionalization
# Experimental: 0.044 g Diacerhein were suspended into 20 mL dry THF, followed by addition of 0.022 g CDI dissolved in 2 mL THF. The reaction mixture was stirred for 1 hour at room temperature until a clear solution was obtained. 0.5 g cryo-micronized HA powder were added and the suspension stirred at 70° C. for 24 hours. The reaction mixture was then filtered through a G4-fritte and washed with 150 mL dry THF. The non-soluble remaining HA product was slightly yellowish. By redissolving the product in water small amounts of remaining dispersed diacerhein could be removed by centrifugation to yield a visually clear and transparent aqueous solution.
# The obtained product was analyzed by H^1-NMR-, HPLC-, UV- and LC-MS/MS-analyses, and the following results were obtained. The reaction resulted a 100% yield of HA-polymer, close to its original molecular weight with a 2% diacerhein-fimctionalization. No significant degradation of HA in the final product could be observed. […] For further qualitative characterization the HA-diacerhein product was enzymatically hydrolysed, which lead to HA-fragments (oligomers) with and without diacerhein, which could be analysed by HPLC analysis. Furthermore HA-fragments with and without diacerhein attached were identified by LC-MS/MS.
# [2] = pH determination of the 1% solution; settings: 1% (weight/weight) solution in MilliQ water; Metrohm 691 pH-Meter, Biotrode glass electrode
# Experimental: pH of the above described 1% solution was determined to be 5.5 (Metrohm 691 ph-Meter operated with a Biotrode glass electrode; according to specifications received for the initial hyaluronic acid provided by TRB, pH of a 0.5% solution should be between 5.0 and 8.5).
# [3] = Solution appearance of a 1% (weight/weight) solution in MilliQ water; settings: approx. 10 mg freeze-dried compound in 1 ml MilliQ water, after storage or centrifugation at 14'000 rpm for 10 min
# Experimental: A 1% (weight/weight) solution was obtained by dissolving approximately 10 mg of freeze-dried compound into 1 ml of pure MilliQ water.
Substance,solubility in water [1],pH of 1% solution [2],solution appearance / precipitation [3]
HA-Diacerhein [Example 1],soluble in water,,
HA-Diacerhein [Example 2],,5.5,no precipitation occurred

# From patent US20140163217A1, “PROCESS FOR THE ESTERIFICATION OF HYALURONIC ACID WITH HYDROPHOBIC ORGANIC COMPOUNDS” (UNIVERSITE DE GENEVE, priority 2010, published 2014)
